These are literature values, as cited in patent publication US12678516B2, “Immunostimulatory toll-like receptor agonist-nanoparticle for cancer immunotherapy” (The Board of Trustees of the Leland Stanford Junior …, priority 2021, dated 2026).

Test in series [1]: not given
The source holds these as a separate data set.

On to “Tremelimumab: fully humanized CTLA4 antibody”, for which the “toxicity with more frequent dosing” value (10 mg/kg monthly vs 15 mg/kg every 3 months, phase II) is “doubled”. The “sustained plasma levels in patients with the majority of responses” value (at one month) is more than 30 µg/mL. Also, where the note is “single antibody infusion, doses 0.01 to 15 mg/kg”, the “doses at which objective responses were evident” value is listed as not below 3 mg/kg.

For the substance “ipilimumab: fully humanized CTLA4 antibody”, the “grade Ill/IV enterocolitis, share of patients” value in series [1] (10 mg/kg) is ~ 15%. Moreover, in series [1] (CTLA-4 blockade, patients), the “hepatitis (irAE)” value is 5-10%, the “hypophysitis (irAE)” value was 5%, the “leucopenia (irAE)” value was less than 2% and the “pancreatitis (irAE)” value is reported as less than 2%. For the same substance, in series [1] (CTLA-4 blockade, patients), the “rash/pruritus (irAE)” value is more than 50% and the “uveitis (irAE)” value is given as less than 2%.
